Results as given in patent publication US20110015124A1 (TEMPLE UNIVERSITY OF THE COMMOMWEALTH SYSTEM OF HIGHER …, published 2011).
Starred links: 1 amine or outer side, 2 acyl side, 3 side chain; linkers in the order of their positions; H or OH if unused. Non-standard residues stand in square brackets, D forms with d. Primed or numbered codes have the meaning given here. No end group written: not given here. Tyr(Me)″ = methylated tyrosine, COc1ccc(C[C@H](N[*:1])C(=O)[*:2])cc1; Tyr(3,5-I2) = N[C@@H](Cc1cc(I)c(O)c(I)c1)C(=O)O; dGla = N[C@H](CC(C(=O)O)C(=O)O)C(=O)O; Dap = NC[C@H](N)C(=O)O; βAla = NCCC(=O)O

T1: human IgG Fc-conjugated ObR extracellular domain (R&D Systems) (human, UniProt P48357 22-839)
T1 construct: extracellular domain; it was detected with an antibody specific for the N-terminus of human ObR; also called ObR extracellular fragment-human Fc chimera; extracellular domain of ObR; not shown: human IgG Fc
T1 sequence (looked up): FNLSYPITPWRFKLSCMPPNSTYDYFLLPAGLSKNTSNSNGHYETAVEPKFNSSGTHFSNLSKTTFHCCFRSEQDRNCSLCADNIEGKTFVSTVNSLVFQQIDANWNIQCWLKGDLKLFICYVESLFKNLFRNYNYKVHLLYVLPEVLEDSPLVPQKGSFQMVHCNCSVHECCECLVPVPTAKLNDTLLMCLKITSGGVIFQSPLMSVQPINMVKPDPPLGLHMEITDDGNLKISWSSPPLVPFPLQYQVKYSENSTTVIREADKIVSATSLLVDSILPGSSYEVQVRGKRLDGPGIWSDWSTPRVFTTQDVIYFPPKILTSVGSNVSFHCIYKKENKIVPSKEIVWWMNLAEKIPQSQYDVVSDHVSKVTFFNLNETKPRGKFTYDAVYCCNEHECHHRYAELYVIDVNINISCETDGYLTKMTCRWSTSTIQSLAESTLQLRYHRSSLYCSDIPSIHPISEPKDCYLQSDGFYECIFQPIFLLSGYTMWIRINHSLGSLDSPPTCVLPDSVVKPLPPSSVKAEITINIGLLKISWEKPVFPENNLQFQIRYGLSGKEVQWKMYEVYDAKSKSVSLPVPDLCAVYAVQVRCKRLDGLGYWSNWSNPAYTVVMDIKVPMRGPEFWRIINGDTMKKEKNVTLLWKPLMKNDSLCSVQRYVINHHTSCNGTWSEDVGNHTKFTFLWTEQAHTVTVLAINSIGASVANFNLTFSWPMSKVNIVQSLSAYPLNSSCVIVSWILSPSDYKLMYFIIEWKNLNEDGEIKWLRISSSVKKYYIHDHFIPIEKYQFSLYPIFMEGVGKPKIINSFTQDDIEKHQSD

T2: leptin receptor (ObR) naturally expressed on MCF-7 and DU-45 cells (human, UniProt P48357 22-1165)
T2 sequence (looked up): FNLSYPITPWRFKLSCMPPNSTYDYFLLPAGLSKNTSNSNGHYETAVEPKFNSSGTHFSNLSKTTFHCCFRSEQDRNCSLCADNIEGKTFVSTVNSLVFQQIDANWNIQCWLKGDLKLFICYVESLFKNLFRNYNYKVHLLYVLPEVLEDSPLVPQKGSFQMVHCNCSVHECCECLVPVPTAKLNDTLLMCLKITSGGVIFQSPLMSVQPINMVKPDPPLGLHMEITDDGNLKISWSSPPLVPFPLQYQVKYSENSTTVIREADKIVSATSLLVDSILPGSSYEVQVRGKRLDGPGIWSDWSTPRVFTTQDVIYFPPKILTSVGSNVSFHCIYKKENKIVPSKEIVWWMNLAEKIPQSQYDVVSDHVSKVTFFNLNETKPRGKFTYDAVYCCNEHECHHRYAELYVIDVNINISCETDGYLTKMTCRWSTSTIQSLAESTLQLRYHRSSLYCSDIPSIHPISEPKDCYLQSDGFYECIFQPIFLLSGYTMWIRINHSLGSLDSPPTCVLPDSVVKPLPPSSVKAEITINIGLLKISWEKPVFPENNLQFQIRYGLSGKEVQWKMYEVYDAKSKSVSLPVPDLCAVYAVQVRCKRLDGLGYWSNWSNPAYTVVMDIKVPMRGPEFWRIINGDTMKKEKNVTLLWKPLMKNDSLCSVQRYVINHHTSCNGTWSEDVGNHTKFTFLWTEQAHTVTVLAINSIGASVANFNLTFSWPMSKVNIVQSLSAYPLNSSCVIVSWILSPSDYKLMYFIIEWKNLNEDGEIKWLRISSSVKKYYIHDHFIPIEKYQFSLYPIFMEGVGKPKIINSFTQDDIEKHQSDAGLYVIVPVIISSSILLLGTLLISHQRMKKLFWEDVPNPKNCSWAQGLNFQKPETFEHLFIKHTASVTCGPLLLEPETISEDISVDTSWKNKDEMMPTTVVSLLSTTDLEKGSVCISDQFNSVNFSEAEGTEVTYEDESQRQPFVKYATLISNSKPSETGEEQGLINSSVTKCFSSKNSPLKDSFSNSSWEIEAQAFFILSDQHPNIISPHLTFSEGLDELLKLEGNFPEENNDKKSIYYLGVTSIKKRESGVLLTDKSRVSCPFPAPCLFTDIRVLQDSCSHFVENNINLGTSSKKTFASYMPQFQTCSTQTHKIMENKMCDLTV

B1: pyrrhocoricin (peptide, UniProt P37362 1-20, looked up)
peptide: VDKGSYLPRPTPPRPIYNRN
notes: Negative control peptide; also called negative control antibacterial peptide pyrrhocoricin
B2: A11 peptide (peptide)
peptide: [Tyr(Me)″]STEVV[βAla]LSRL-NH2
modifications: N-terminus assumed
SMILES: COc1ccc(C[C@H](N)C(=O)N[C@@H](CO)C(=O)N[C@H](C(=O)N[C@@H](CCC(=O)O)C(=O)N[C@H](C(=O)N[C@H](C(=O)NCCC(=O)N[C@@H](CC(C)C)C(=O)N[C@@H](CO)C(=O)N[C@@H](CCCNC(=N)N)C(=O)N[C@@H](CC(C)C)C(N)=O)C(C)C)C(C)C)[C@@H](C)O)cc1
B3: A4 peptide (peptide)
peptide: G[Tyr(3,5-I2)]STEVV[βAla]LSRL-NH2
modifications: N-terminus assumed
SMILES: CC(C)C[C@H](NC(=O)[C@H](CCCNC(=N)N)NC(=O)[C@H](CO)NC(=O)[C@H](CC(C)C)NC(=O)CCNC(=O)[C@@H](NC(=O)[C@@H](NC(=O)[C@H](CCC(=O)O)NC(=O)[C@@H](NC(=O)[C@H](CO)NC(=O)[C@H](Cc1cc(I)c(O)c(I)c1)NC(=O)CN)[C@@H](C)O)C(C)C)C(C)C)C(N)=O
B4: F2 peptide (peptide)
peptide: G[Tyr(3,5-I2)]ST[dGla]VV[dA]LSRL-NH2
modifications: N-terminus assumed
SMILES: CC(C)C[C@H](NC(=O)[C@H](CCCNC(=N)N)NC(=O)[C@H](CO)NC(=O)[C@H](CC(C)C)NC(=O)[C@@H](C)NC(=O)[C@@H](NC(=O)[C@@H](NC(=O)[C@@H](CC(C(=O)O)C(=O)O)NC(=O)[C@@H](NC(=O)[C@H](CO)NC(=O)[C@H](Cc1cc(I)c(O)c(I)c1)NC(=O)CN)[C@@H](C)O)C(C)C)C(C)C)C(N)=O
B5: D12 peptide (peptide)
peptide: [Tyr(Me)″]ST[dGla]VV[dA]LSRL-NH2
modifications: N-terminus assumed
SMILES: COc1ccc(C[C@H](N)C(=O)N[C@@H](CO)C(=O)N[C@H](C(=O)N[C@H](CC(C(=O)O)C(=O)O)C(=O)N[C@H](C(=O)N[C@H](C(=O)N[C@H](C)C(=O)N[C@@H](CC(C)C)C(=O)N[C@@H](CO)C(=O)N[C@@H](CCCNC(=N)N)C(=O)N[C@@H](CC(C)C)C(N)=O)C(C)C)C(C)C)[C@@H](C)O)cc1

Assays:
[1] = target: leptin receptor (ObR) naturally expressed on MCF-7 and DU-45 cells (human) (UniProt P48357); assay: cell-based or functional assay
[2] = target: T1, human IgG Fc-conjugated ObR …; assay: ELISA-type solid-phase binding assay, peptide on plate, ObR-Fc in solution
Protocol: For dot-blot and ELISA assays, the leptin fragments were dissolved in electroblot transfer buffer (25 mM Tris and […] buffer containing 20% methanol) and were applied to either a nitrocellulose membrane or dried upon ELISA plates (Otvos, L., Jr., and Szendrei, G. I. (1996) Enzyme-linked immunosorbent assay of peptides. In: Neuropeptide Protocols (G. B. Irvine and C. H. Williams, eds.). Humana Press, Totowa, N.J., pp. 269-275). The solid surfaces were blocked with 5% BSA in a PBS-0.5% Tween 20 buffer (PBST) for 3 hours at room temperature and were subsequently incubated with 10 μg/mL solution of human IgG Fc-conjugated ObR extracellular domain (R&D Systems) dissolved in Tris-buffered saline-0.1% Tween 20 buffer (TBST) containing 1% bovine serum albumin (BSA) for 1 hour. A monoclonal goat antibody (Santa Cruz Biotechnology), specific for the N-terminus of human ObR, was added to the assay mixture, followed by addition of a horseradish peroxidase(HRP)-conjugated anti-goat IgG donkey antibody for the dot-blot assay, and HRP-conjugated anti-goat Fc mouse antibody for ELISA assay (used at a 1:15,000 dilution in PBST and 1% BSA). Between reagents, the solid surfaces were washed extensively with PBST. After washing with PBST, the membrane was treated with a chemiluminescence luminol oxidizer (NEN) for 1 min. […] Optical absorbance values were read at 490 nm using a microplate reader. […]

[3] = target: T2, leptin receptor (ObR) naturally …; assay: cell-based or functional assay
[4] = target: T2, leptin receptor (ObR) naturally …; assay: cell-based or functional assay; remark: listed apart in the source

Molecule | Relative stimulation (%) of MCF-7 cells, with 10 nM leptin [3] | further results
human leptin (R&D Systems) (from UniProt P41159 22-167) | – | MCF-7 cell growth (cell count, 5 days) [1]: 40%
B1 | – | binding result [2]: no binding
B2 | -3% | –
B3 | -10% | –
B4 | -15% | –
B5 | -43% | –
[Tyr(3,5-I2)]S(β‑D‑glucose)TEVVALSRL[Dap](Ac)-NH2 [E1Free glycopeptide] | – | EC50 estimated from ERK1/2 stimulation in MCF-7 cells [4]: 100 to 150 nM
